Assay results as given in the supplement of paper PMC10567573.

B1: EIF5 (parent)
chain: KQTIGNSCKACGYRGMLDTHHKLC

Variants of: B1
Experiment: protein stability index of a GFP-peptide fusion (GPS, HEK-293T) (PSI 1-6); higher = more stable
Conditions: c terminus: a fixed tail appended
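Further: lentivirally expressed fusions sorted by FACS into six bins by GFP to DsRed ratio, PSI derived from sequencing read proportions per bin multiplied by bin number.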

**Q.** With KQTIGNSCKACGYRGLLDTHHKLC as the variant, how does the protein stability index read?
**A.** 3.51

**Q.** For KQTIGNSCKACGYRGYLDTHHKLC, which protein stability index is on record?
**A.** 2.98

**Q.** For KQTIGNSCKACGYRGPLDTHHKLC, which protein stability index is on record?
**A.** 4.45

**Q.** With KQTIGNSCKACGYRGSLDTHHKLC as the variant, how does the protein stability index read?
**A.** 3.8

**Q.** With KQTIGNSCKACGYRGKLDTHHKLC as the variant, how does the protein stability index read?
**A.** 4.35

**Q.** For KQTIGNSCKACGYRGWLDTHHKLC, which protein stability index is on record?
**A.** 2.62

**Q.** For KQTIGNSCKACGYRGQLDTHHKLC, which protein stability index is on record?
**A.** 3.9

**Q.** Which protein stability index does the source give for KQTIGNSCKACGYRGTLDTHHKLC here?
**A.** 4.14

**Q.** Which protein stability index does the source give for KQTIGNSCKACGYRGVLDTHHKLC here?
**A.** 3.27

**Q.** Which protein stability index does the source give for KQTIGNSCKACGYRGRLDTHHKLC here?
**A.** 3.29

**Q.** With KQTIGNSCKACGYRGNLDTHHKLC as the variant, how does the protein stability index read?
**A.** 3.63

**Q.** With KQTIGNSCKACGYRGILDTHHKLC as the variant, how does the protein stability index read?
**A.** 3.07

**Q.** For KQTIGNSCKACGYRGMPDTHHKLC, which protein stability index is on record?
**A.** 3.88

**Q.** With KQTIGNSCKACGYRGMKDTHHKLC as the variant, how does the protein stability index read?
**A.** 3.44

**Q.** With KQTIGNSCKACGYRGMYDTHHKLC as the variant, how does the protein stability index read?
**A.** 3.1

**Q.** Which protein stability index does the source give for KQTIGNSCKACGYRGMCDTHHKLC here?
**A.** 4.42

**Q.** Which protein stability index does the source give for KQTIGNSCKACGYRGMDDTHHKLC here?
**A.** 4.68

**Q.** Which protein stability index does the source give for KQTIGNSCKACGYRGMEDTHHKLC here?
**A.** 3.98

**Q.** For KQTIGNSCKACGYRGMFDTHHKLC, which protein stability index is on record?
**A.** 2.55

**Q.** Which protein stability index does the source give for KQTIGNSCKACGYRGMWDTHHKLC here?
**A.** 2.31

**Q.** For KQTIGNSCKACGYRGMIDTHHKLC, which protein stability index is on record?
**A.** 3.33

**Q.** With KQTIGNSCKACGYRGMVDTHHKLC as the variant, how does the protein stability index read?
**A.** 2.6

**Q.** For KQTIGNSCKACGYRGMHDTHHKLC, which protein stability index is on record?
**A.** 3.63

**Q.** Which protein stability index does the source give for KQTIGNSCKACGYRGMMDTHHKLC here?
**A.** 2.96

**Q.** For KQTIGNSCKACGYRGMTDTHHKLC, which protein stability index is on record?
**A.** 3.91

**Q.** For KQTIGNSCKACGYRGMSDTHHKLC, which protein stability index is on record?
**A.** 4.24

**Q.** With KQTIGNSCKACGYRGMRDTHHKLC as the variant, how does the protein stability index read?
**A.** 3.44

**Q.** Which protein stability index does the source give for KQTIGNSCKACGYRGMNDTHHKLC here?
**A.** 3.65

**Q.** With KQTIGNSCKACGYRGMQDTHHKLC as the variant, how does the protein stability index read?
**A.** 3.85

**Q.** With KQTIGNSCKACGYRGMGDTHHKLC as the variant, how does the protein stability index read?
**A.** 3.77

**Q.** Which protein stability index does the source give for KQTIGNSCKACGYRGMADTHHKLC here?
**A.** 3.66

**Q.** With KQTIGNSCKACGYRGMLDEHHKLC as the variant, how does the protein stability index read?
**A.** 3.62

**Q.** For KQTIGNSCKACGYRGMLDCHHKLC, which protein stability index is on record?
**A.** 3.45

**Q.** Which protein stability index does the source give for KQTIGNSCKACGYRGMLDKHHKLC here?
**A.** 3.44

**Q.** For KQTIGNSCKACGYRGMLDMHHKLC, which protein stability index is on record?
**A.** 3.03

**Q.** Which protein stability index does the source give for KQTIGNSCKACGYRGMLDGHHKLC here?
**A.** 4.05

**Q.** With KQTIGNSCKACGYRGMLDWHHKLC as the variant, how does the protein stability index read?
**A.** 1.87

**Q.** With KQTIGNSCKACGYRGMLDIHHKLC as the variant, how does the protein stability index read?
**A.** 2.68

**Q.** With KQTIGNSCKACGYRGMLDYHHKLC as the variant, how does the protein stability index read?
**A.** 2.71

**Q.** For KQTIGNSCKACGYRGMLDNHHKLC, which protein stability index is on record?
**A.** 3.81

**Q.** With KQTIGNSCKACGYRGMLDVHHKLC as the variant, how does the protein stability index read?
**A.** 2.49

**Q.** With KQTIGNSCKACGYRGMLDDHHKLC as the variant, how does the protein stability index read?
**A.** 4.48

**Q.** With KQTIGNSCKACGYRGMLDSHHKLC as the variant, how does the protein stability index read?
**A.** 3.1

**Q.** For KQTIGNSCKACGYRGMLDRHHKLC, which protein stability index is on record?
**A.** 2.79

**Q.** With KQTIGNSCKACGYRGMLDLHHKLC as the variant, how does the protein stability index read?
**A.** 2.29

**Q.** With KQTIGNSCKACGYRGMLDAHHKLC as the variant, how does the protein stability index read?
**A.** 3.29

**Q.** With KQTIGNSCKACGYRGMLDFHHKLC as the variant, how does the protein stability index read?
**A.** 2.17

**Q.** Which protein stability index does the source give for KQTIGNSCKACGYRGMLDHHHKLC here?
**A.** 3.43

**Q.** Which protein stability index does the source give for KQTIGNSCKACGYRGMLDPHHKLC here?
**A.** 2.81

**Q.** For KQTIGNSCKACGYRGMLDQHHKLC, which protein stability index is on record?
**A.** 3.03

**Q.** With KQTIGNSCKACGYRGMLDTHFKLC as the variant, how does the protein stability index read?
**A.** 2.35

**Q.** For KQTIGNSCKACGYRGMLDTHAKLC, which protein stability index is on record?
**A.** 2.7

**Q.** For KQTIGNSCKACGYRGMLDTHCKLC, which protein stability index is on record?
**A.** 3.17

**Q.** Which protein stability index does the source give for KQTIGNSCKACGYRGMLDTHDKLC here?
**A.** 3.75

**Q.** Which protein stability index does the source give for KQTIGNSCKACGYRGMLDTHEKLC here?
**A.** 3.21

**Q.** For KQTIGNSCKACGYRGMLDTHGKLC, which protein stability index is on record?
**A.** 3.17

**Q.** For KQTIGNSCKACGYRGMLDTCHKLC, which protein stability index is on record?
**A.** 2.75

**Q.** For KQTIGNSCKACGYRGMLDTYHKLC, which protein stability index is on record?
**A.** 2.09

**Q.** Which protein stability index does the source give for KQTIGNSCKACGYRGMLDTTHKLC here?
**A.** 1.98

**Q.** With KQTIGNSCKACGYRGMLDTPHKLC as the variant, how does the protein stability index read?
**A.** 2.47

**Q.** With KQTIGNSCKACGYRGMLDTGHKLC as the variant, how does the protein stability index read?
**A.** 2.56

**Q.** Which protein stability index does the source give for KQTIGNSCKACGYRGMLDTRHKLC here?
**A.** 2.28

**Q.** With KQTIGNSCKACGYRGMLDTIHKLC as the variant, how does the protein stability index read?
**A.** 2.12

**Q.** With KQTIGNSCKACGYRGMLDTNHKLC as the variant, how does the protein stability index read?
**A.** 2.92

**Q.** Which protein stability index does the source give for KQTIGNSCKACGYRGMLDTSHKLC here?
**A.** 3.17

**Q.** Which protein stability index does the source give for KQTIGNSCKACGYRGMLDTWHKLC here?
**A.** 2.48

**Q.** Which protein stability index does the source give for KQTIGNSCKACGYRGMLDTDHKLC here?
**A.** 3.64

**Q.** For KQTIGNSCKACGYRGMLDTQHKLC, which protein stability index is on record?
**A.** 2.5

**Q.** For KQTIGNSCKACGYRGMLDTMHKLC, which protein stability index is on record?
**A.** 1.23

**Q.** With KQTIGNSCKACGYRGMLDTEHKLC as the variant, how does the protein stability index read?
**A.** 3.24

**Q.** For KQTIGNSCKACGYRGMLDTFHKLC, which protein stability index is on record?
**A.** 2.07

**Q.** Which protein stability index does the source give for KQTIGNSCKACGYRGMLDTVHKLC here?
**A.** 2.15

**Q.** With KQTIGNSCKACGYRGMLDTLHKLC as the variant, how does the protein stability index read?
**A.** 2.24

**Q.** With KQTIGNSCKACGYRGMLDTAHKLC as the variant, how does the protein stability index read?
**A.** 2.24

**Q.** Which protein stability index does the source give for KQTIGNSCKACGYRGMLDTKHKLC here?
**A.** 2.61

**Q.** With KQTIGNSCKACGYRGMLCTHHKLC as the variant, how does the protein stability index read?
**A.** 3.19

**Q.** For KQTIGNSCKACGYRGMLMTHHKLC, which protein stability index is on record?
**A.** 2.56

**Q.** With KQTIGNSCKACGYRGMLKTHHKLC as the variant, how does the protein stability index read?
**A.** 2.46

**Q.** For KQTIGNSCKACGYRGMLWTHHKLC, which protein stability index is on record?
**A.** 1.99

**Q.** For KQTIGNSCKACGYRGMLHTHHKLC, which protein stability index is on record?
**A.** 3.07

**Q.** Which protein stability index does the source give for KQTIGNSCKACGYRGMLATHHKLC here?
**A.** 2.85

**Q.** With KQTIGNSCKACGYRGMLQTHHKLC as the variant, how does the protein stability index read?
**A.** 2.29

**Q.** With KQTIGNSCKACGYRGMLVTHHKLC as the variant, how does the protein stability index read?
**A.** 2.39

**Q.** With KQTIGNSCKACGYRGMLSTHHKLC as the variant, how does the protein stability index read?
**A.** 3.22

**Q.** For KQTIGNSCKACGYRGMLPTHHKLC, which protein stability index is on record?
**A.** 2.71

**Q.** Which protein stability index does the source give for KQTIGNSCKACGYRGMLETHHKLC here?
**A.** 3.35

**Q.** With KQTIGNSCKACGYRGMLTTHHKLC as the variant, how does the protein stability index read?
**A.** 2.96

**Q.** With KQTIGNSCKACGYRGMLRTHHKLC as the variant, how does the protein stability index read?
**A.** 2.65

**Q.** For KQTIGNSCKACGYRGMLYTHHKLC, which protein stability index is on record?
**A.** 2.09

**Q.** With KQTIGNSCKACGYRGMLLTHHKLC as the variant, how does the protein stability index read?
**A.** 2.38

**Q.** With KQTIGNSCKACGYRGMLITHHKLC as the variant, how does the protein stability index read?
**A.** 2.24

**Q.** Which protein stability index does the source give for KQTIGNSCKACGYRGMLNTHHKLC here?
**A.** 2.88

**Q.** Which protein stability index does the source give for KQTIGNSCKACGYRGMLGTHHKLC here?
**A.** 2.81

**Q.** With KQTIGNSCKACGYRGMLFTHHKLC as the variant, how does the protein stability index read?
**A.** 2.08
